Test results from patent US20190310251A1.

Columns and labels:
[1] = molecular target: membrane-bound non-cleavable TNFα (human) (UniProt P01375); experiment: cell-based or functional assay
CD20 = CD20 (UniProt P11836); experiment: cell-based or functional assay
Sequence of UniProt P11836 (P11836 whole entry): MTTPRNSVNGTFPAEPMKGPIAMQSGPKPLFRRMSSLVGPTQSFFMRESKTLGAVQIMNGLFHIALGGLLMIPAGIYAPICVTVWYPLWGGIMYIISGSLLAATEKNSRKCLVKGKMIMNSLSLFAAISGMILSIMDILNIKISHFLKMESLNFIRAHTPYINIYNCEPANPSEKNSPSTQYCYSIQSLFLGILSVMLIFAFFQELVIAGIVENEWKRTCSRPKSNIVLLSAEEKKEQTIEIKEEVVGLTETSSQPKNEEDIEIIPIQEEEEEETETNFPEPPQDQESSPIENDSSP

Sequence of UniProt P01375 (P01375 whole entry A76L/V77L): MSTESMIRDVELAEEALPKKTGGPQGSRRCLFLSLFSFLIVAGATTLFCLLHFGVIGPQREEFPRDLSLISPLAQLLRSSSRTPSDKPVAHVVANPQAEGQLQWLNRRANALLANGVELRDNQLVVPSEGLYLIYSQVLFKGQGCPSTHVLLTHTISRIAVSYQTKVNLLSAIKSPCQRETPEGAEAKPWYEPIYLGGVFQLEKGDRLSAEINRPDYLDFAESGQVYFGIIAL

**Q.** How did the ADCC Reporter Gene Assay, Serum Sample/Control; Hum. Serum + Etanercept [1] turn out when etanercept (Fc fusion) was run?
**A.** 2.77

**Q.** What about the ADCC Reporter Gene Assay, Serum Sample/Control; No Hum. Serum + Etanercept [1] of the same substance?
**A.** 2.66

**Q.** And the ADCC Reporter Gene Assay, Target Positive Cells (RLU); Hum. Serum + Etanercept [1]?
**A.** 23700 RLU

**Q.** What about the ADCC Reporter Gene Assay, Target Positive Cells (RLU); No Hum. Serum + Etanercept [1] of the same substance?
**A.** 22800 RLU

**Q.** What about the ADCC Reporter Gene Assay, Target+/Target-; Hum. Serum + Etanercept [1] of the same substance?
**A.** 13.1

**Q.** What about the ADCC Reporter Gene Assay, Target+/Target-; No Hum. Serum + Etanercept [1] of the same substance?
**A.** 14.1

**Q.** With rituximab (antibody) as the substance, how does the EC50 of the ADCC reporter gene assay (NFAT effector cells & wild type Raji cells, no human serum) (CD20) read?
**A.** 1.2 µg/mL

**Q.** What about the EC50 of the ADCC reporter gene assay (iLite effector cells & CD20++ target cells, no human serum) (CD20) of the same substance?
**A.** 0.002 µg/mL

**Q.** With adalimumab (antibody) as the substance, how does the ADCC Reporter Gene Assay, Serum Sample/Control; Hum. Serum + adalimumab [1] read?
**A.** 2.39

**Q.** What about the ADCC Reporter Gene Assay, Serum Sample/Control; No Hum. Serum + adalimumab [1] of the same substance?
**A.** 2.65

**Q.** And the ADCC Reporter Gene Assay, Target Positive Cells (RLU); Hum. Serum + adalimumab [1]?
**A.** 27000 RLU

**Q.** And the ADCC Reporter Gene Assay, Target Positive Cells (RLU); No Hum. Serum + adalimumab [1]?
**A.** 30000 RLU

**Q.** What about the ADCC Reporter Gene Assay, Target+/Target-; Hum. Serum + adalimumab [1] of the same substance?
**A.** 12.3

**Q.** What about the ADCC Reporter Gene Assay, Target+/Target-; No Hum. Serum + adalimumab [1] of the same substance?
**A.** 17.6
